The values below come from patent US20220033501A1 (SHANGHAI PHARMAEXPLORER, published 2022).

The chains are these.
T1: monkey TIM-3 on CHOK1 stable cell line (CHOK1-cTIM-3) (monkey)
T1 chain: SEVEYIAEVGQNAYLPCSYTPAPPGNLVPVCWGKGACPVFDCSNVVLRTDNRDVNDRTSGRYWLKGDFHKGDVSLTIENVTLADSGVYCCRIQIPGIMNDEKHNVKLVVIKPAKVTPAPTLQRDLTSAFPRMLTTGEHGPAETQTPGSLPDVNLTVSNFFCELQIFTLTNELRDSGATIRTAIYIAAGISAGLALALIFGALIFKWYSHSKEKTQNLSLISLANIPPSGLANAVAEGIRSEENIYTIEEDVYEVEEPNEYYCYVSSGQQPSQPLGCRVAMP

T2: human TIM-3 protein with hFc tag (hTIM-3-hFc protein) (human, UniProt Q8TDQ0 22-200)
T2 construct: also called immunogen 1; human TIM-3 extracellular domain protein; not shown: human IgG Fc fragment (hFc) of the pCpC vector
T2 sequence: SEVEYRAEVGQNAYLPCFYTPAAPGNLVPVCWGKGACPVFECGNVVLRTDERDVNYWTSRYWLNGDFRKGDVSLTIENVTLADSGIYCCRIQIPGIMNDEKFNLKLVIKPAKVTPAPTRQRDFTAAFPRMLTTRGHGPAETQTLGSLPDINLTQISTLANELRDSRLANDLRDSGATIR

T3: monkey TIM-3 protein with hFc tag (cTIM-3-hFc protein) (monkey; human)
T3 construct: Made in HEK293 cells; also called monkey TIM-3 extracellular domain protein; not shown: human IgG Fc fragment (hFc) of the pCpC vector
T3 chain: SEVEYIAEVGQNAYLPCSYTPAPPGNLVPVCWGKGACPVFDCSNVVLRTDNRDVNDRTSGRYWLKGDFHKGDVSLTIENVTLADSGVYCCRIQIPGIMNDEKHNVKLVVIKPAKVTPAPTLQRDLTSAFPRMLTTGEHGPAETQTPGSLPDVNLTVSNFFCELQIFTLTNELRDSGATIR

T4: murine TIM-3 protein with hFc tag (mTIM-3-hFc protein) (mouse; human, UniProt Q8VIM0 29-191)
T4 construct: Made in HEK293 cells; also called mouse TIM-3 extracellular domain protein; not shown: human IgG Fc fragment (hFc) of the pCpC vector
T4 chain: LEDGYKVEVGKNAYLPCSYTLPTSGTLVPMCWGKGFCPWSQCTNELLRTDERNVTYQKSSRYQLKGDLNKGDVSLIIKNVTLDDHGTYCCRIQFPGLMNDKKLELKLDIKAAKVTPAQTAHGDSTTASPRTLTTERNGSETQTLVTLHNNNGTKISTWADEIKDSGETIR

T5: murine TIM-3 extracellular domain protein with hFc tag (mTIM-3-hFc) (mouse, UniProt Q8VIM0 29-191)
T5 construct: also called mouse TIM-3 extracellular domain protein; not shown: human IgG Fc fragment (hFc) of the pCpC vector
T5 chain: T4 chain

T6: human TIM-3 extracellular domain protein with hFc tag (hTIM-3-hFc) (human, UniProt Q8TDQ0 22-200)
T6 construct: not shown: human IgG Fc fragment (hFc) of the pCpC vector
T6 sequence: T2 sequence

T7: monkey TIM-3 extracellular domain protein with hFc tag (cTIM-3-hFc) (monkey)
T7 construct: not shown: human IgG Fc fragment (hFc) of the pCpC vector
T7 chain: T3 chain

B1: 57F4E5 fully human TIM-3 antibody (human IgG4, kappa) (antibody, V domains shown)
VH: EVQLVESGGGLVQPGGSLRLSCAASGFTFSSYWMSWVRQAPGKGLEWVANIKQDGSEKYYVDSVKGRFTISRDSAKNSLYLQMNSLRAEDTAMYFCARDSNFFDYWGQGTLVTVSS
VL: ETVMTQSPATLSVSPGERATLSCRASQSVSSNLAWYQRKPGQAPRLLIYFSSTRATGIPARFSGSGSGTEFTLTISSLQSEDFAVYYCQQYNNWPLTFGGGTKVEIK
B2: 134H3G6 fully human TIM-3 antibody (human IgG4, kappa) (antibody, V domains shown)
VH: EVQLVESGGGLVQPGGSLRLSCAASGFTFSNSWMTWVRQAPGKGLEWVANIKQAGTEKYYVDSVKGRFTISRDNAKNSLYLQMNSLRAEDTAVYYCNSGSNYFDYWGQGTLVTVSS
VL: B1 VL with T2I, S26R, S28N, V29F, S30Y, R38Q, F50G, S51A
B3: 215A8F2 fully human TIM-3 antibody (human IgG4, kappa) (antibody, V domains shown)
VH: QVQLQQWGAGLLKPSETLSLTCTVYGGSFSGYYWNWIRQPPGKGLEWLGEINHSGSTNYNPSLKRRVTISVDTSKNQFSLKLSSVTAADTAVYYCARVYYYGPFDFWGQGTLVTVSS
VL: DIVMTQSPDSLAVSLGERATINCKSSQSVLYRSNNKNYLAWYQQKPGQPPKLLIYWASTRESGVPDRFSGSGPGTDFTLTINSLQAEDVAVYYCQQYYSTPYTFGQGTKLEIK
B4: 7A4F10 fully human TIM-3 antibody (human IgG4, kappa) (antibody, V domains shown)
VH: EVQLLESGGGLVQPGGSLRLSCAASGFTFRTHLISWVRQAPGKGLEWVAAITGSGGSTYYADSVKGRFIISRDNSKNTLFLQMNSLRAEDTAVYYCAKDGGSGSYDDFWGQGTLVTVSS
VL: ETVLTQSPVTLSLSPGERATLSCRASQSVGSYLAWYQQKPGQAPRLLIYDASNRATGIPARFSGSGSGTDFTLTISSLEPEDFAVYYCQQRSNWPPTFGQGTKVEIK
B5: 18D2H2 (TIM-3 antibody purified from hybridoma, chimeric antibody of Example 2) (antibody, V domains shown)
VH: EVQLVESGGDLVQPGGSLRLSCAASGFTFSTYWMTWVRQAPGRGLEWVANIKQDGSAKYYVDSVKGRFTLSRDDAKNSLYLQMNSLRAEDTAVYYCARGSNWFDYWGQGTLVTVSS
VL: B1 VL with S26N, S28N, S30Y, R38Q, F50D, S51A, I58F
notes: From hybridoma of Harbour H2L2 transgenic mice: human variable regions, rat constant regions
B6: 57F4E5 (TIM-3 antibody purified from hybridoma, chimeric antibody of Example 2) (antibody, V domains shown)
VH: B1 VH
VL: B1 VL
notes: as for B5
B7: 134H3G6 (TIM-3 antibody purified from hybridoma, chimeric antibody of Example 2) (antibody, V domains shown)
VH: B2 VH
VL: B1 VL with T2I, S26R, S28N, V29F, S30Y, R38Q, F50G, S51A
notes: as for B5
B8: 39E5H1 (TIM-3 antibody purified from hybridoma, chimeric antibody of Example 2) (antibody, V domains shown)
VH: EVQLVESGGGLVQPGGSLRLSCAASGFTFSSYWMSWVRQAPGKGLEWVANIKRGGSERYYVDSVKGRFTISGDNAKNSVYLQMNSLRAEDTAVYYCARGSNWFDPWGQGTLVTVSS
VL: B1 VL with T10I, S30Y, R38Q, P40L, F50D, S51A, L96I, G100Q, K103R, V104L
notes: as for B5
B9: 215A8F2 (TIM-3 antibody purified from hybridoma, chimeric antibody of Example 2) (antibody, V domains shown)
VH: B3 VH
VL: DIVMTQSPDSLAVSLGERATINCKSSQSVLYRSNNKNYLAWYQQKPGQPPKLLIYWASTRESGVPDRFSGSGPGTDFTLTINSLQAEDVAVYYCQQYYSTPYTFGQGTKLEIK
notes: as for B5
B10: 7A4F10 (TIM-3 antibody purified from hybridoma, chimeric antibody of Example 2) (antibody, V domains shown)
VH: B4 VH
VL: B4 VL
notes: as for B5
B11: 34B6D8 (TIM-3 antibody purified from hybridoma, chimeric antibody of Example 2) (antibody, V domains shown)
VH: B8 VH with S31T, S35T, G44R, R53Q, S56G, E57D, R58K, G72T, V79L
VL: EIVMTQSPATLSMSPGERATLSCRASQSVYDNLAWYQQKPGQAPRLLIYGASTRATGIPARFSGSGSGTEFTLTISSLQSEDFALYYCQQYTHWPITFGQGTRLEIK
notes: as for B5

Changes are numbered by the printed parent chain.

The first experiment concerns the target T1, monkey TIM-3 on CHOK1 stable cell line …. Nature of the experiment: FACS, CHOK1-cTIM-3 cells, 8 nM antibody. In general terms: Flow cytometry measures light scatter and fluorescence of single cells or particles in a stream.
Consider B1, for which the Mean fluorescence intensity was found to be 259.

In turn, B2 registered a Mean fluorescence intensity of 401.

Regarding B3, the Mean fluorescence intensity worked out at 362.

In the case of B4, the Mean fluorescence intensity was 325.

Another experiment has the same target. Put plainly: FACS, CHOK1-cTIM-3 cells, 0.064 nM antibody.
In turn, B1 showed a Mean fluorescence intensity of 30.6.

In the case of B2, the Mean fluorescence intensity amounted to 46.4.

Molecule B3 registered a Mean fluorescence intensity of 29.9.

With B4, the Mean fluorescence intensity worked out at 17.2.

For the next experiment, the target named is T2, human TIM-3 protein with hFc tag …. Put plainly: ELISA, coated hTIM-3-hFc; antibody 0.0007 nM. An excerpt: (§1) The amino acid sequence 22-200 of the extracellular domain of the human TIM-3 protein described in the step of Example 1 (as shown in SEQ ID NO. 71 in the sequence listing) was cloned into a pCpC vector having a human IgG Fc fragment (hFc), and transfected into HEK293 cells. The cell culture medium was collected, and purified to obtain the human TIM-3 protein with hFc tag (herein referred to as hTIM-3-hFc protein). The amino acid sequence 22-201 of the extracellular domain of the monkey TIM-3 protein (as shown in SEQ ID NO. 72 in the sequence listing) was cloned into a pCpC vector having a human IgG Fc fragment (hFc), and transfected into HEK293 cells. The cell culture medium was collected, and purified to obtain the monkey TIM-3 protein with hFc tag (herein referred to as cTIM-3-hFc protein). […] The cell culture medium was collected, and purified to obtain the murine TIM-3 protein with hFc tag (herein referred to as mTIM-3-hFc protein). Purified human, monkey, and mouse TIM-3 extracellular domain proteins (hTIM-3-hFc, cTIM-3-hFc, and mTIM-3-hFc) were diluted with PBS to a final concentration of 1.0 μg/ml and then added to a 96-well ELISA plate with 100 μl per well. The plate was sealed with plastic film and incubated overnight at 4° C. The plate was washed 4 times with the plate washing solution (PBS+0.01% Tween20) on the next day, and added with the blocking solution (PBS+0.01% Tween20+1% BSA) and sealed at room temperature for 1-2 hours. The blocking solution was poured out. 50-100 μl of the antibody sample to be tested was added to each well. The plate was incubated at 37° C. for 1-2 hours, and washed 2-3 times with plate washing solution (PBS+0. 01% Tween20). HRP (horseradish peroxidase) labeled secondary antibody was added. The plate was incubated at 37° C. for 1-2 hours, and washed 2-3 times with plate washing solution (PBS+0. 01% Tween20). […] of TMB substrate was added to each well. After incubated at room temperature for 15-30 minutes, the plate was added with […] stop solution (1.0N HCl) to each well. An ELISA plate reader (TiterMax 384plus, Molecular Device) was used to read the A450 nm value.
(In general: An ELISA detects its analyte on a solid surface through an enzyme-linked reagent.)
Consider B5, for which the OD450 was found to be 0.12.

In turn, B6 displayed an OD450 of 0.19.

On to B7, for which the OD450 worked out at 0.13.

In turn, B8 registered an OD450 of 0.16.

B9 displayed an OD450 of 0.14.

Regarding B10, the OD450 stood at 0.12.

B11 showed an OD450 of 0.15.

A further experiment concerns the target T3, monkey TIM-3 protein with hFc tag …. Nature of the experiment: ELISA, coated cTIM-3-hFc; antibody 0.0667 nM.
From the text: as §1
Take B5: the OD450 worked out at 0.74.

With B6, the OD450 was found to be 2.68.

Consider B7, for which the OD450 was determined as 0.64.

B8 returned an OD450 of 1.98.

The molecule B9 displayed an OD450 of 1.5.

The molecule B10 returned an OD450 of 0.7.

For B11, the OD450 came out at 1.92.

In a further experiment the target is T4, murine TIM-3 protein with hFc tag …. Nature of the experiment: ELISA, coated mTIM-3-hFc; antibody 66.667 nM.
From the text: as §1
As for B5, the OD450 turned out to be 0.85.

The molecule B6 gave an OD450 of 0.74.

For B7, the OD450 came out at 0.7.

Consider B8, for which the OD450 was 0.9.

For the molecule B9, the OD450 worked out at 0.77.

On to B10, for which the OD450 stood at 0.66.

B11 showed an OD450 of 1.1.

In the next experiment the target is T5, murine TIM-3 extracellular domain …. Put plainly: ELISA, coated mouse TIM-3 ECD protein, 0 nM antibody.
In turn, B1 gave an OD450 of 0.24.

As for B2, the OD450 stood at 0.22.

B3 had an OD450 of 0.21.

Take B4: the OD450 worked out at 0.23.

The target in another experiment is T6, human TIM-3 extracellular domain …. Put plainly: ELISA, coated human TIM-3 ECD protein, 6.6667 nM antibody.
Molecule B1 displayed an OD450 of 2.91.

As to B2, the OD450 came to 2.81.

B3 had an OD450 of 2.86.

In turn, B4 had an OD450 of 3.01.

In a further experiment the target is T5, murine TIM-3 extracellular domain …. Put plainly: ELISA, coated mouse TIM-3 ECD protein, 0.0007 nM antibody.
As to B1, the OD450 amounted to 0.23.

With B2, the OD450 was determined as 0.21.

Molecule B3 gave an OD450 of 0.21.

Turning to B4, the OD450 was 0.22.

A further experiment concerns the target T7, monkey TIM-3 extracellular domain …. Put plainly: ELISA, coated monkey TIM-3 ECD protein, 0.0001 nM antibody.
For the molecule B1, the OD450 was 0.17.

As to B2, the OD450 is 0.14.

As for B3, the OD450 stood at 0.13.

B4 registered an OD450 of 0.13.

For another experiment the target is unchanged. Put plainly: ELISA, coated monkey TIM-3 ECD protein, 0.0007 nM antibody.
With B1, the OD450 worked out at 0.18.

On to B2, for which the OD450 is 0.15.

In turn, B3 gave an OD450 of 0.15.

B4 showed an OD450 of 0.14.
